From patent US11857509B2, “Liposome compositions and methods of use thereof” (University of Rhode Island Board of Trustees, priority 2010, dated 2024)
Several values for one entry are separate records, joined by “and”; a condition that tells them apart may be missing. Equal values may be shown once.

What was measured:
[1] = test system: acidic tissues, tumors; assay: In vivo fluorescence imaging of tissue and tumor targeting; design: species or system mice and rats
Description: The pH-dependent interaction of pHLIP with membranes allows selectivity in the targeting of acidic (less than pH 7.0) diseased tissue. As noted above, acidity and hypoxia are considered as universal cancer biomarkers, and pHLIP is used as an acidity-targeting probe. Besides cancer, many other pathological states, such as inflammation, ischemia, stroke, arthritis and others are characterized by acidity in the extracellular space, which may broaden the potential applications of pHLIP. […] In addition to fluorescence imaging, PET (positron emission tomography) imaging of the acidic environment in human prostate tumors was performed using ^64Cu-DOTA conjugated to pHLIP. […] To manipulate the acidity of tissues, a buffer solution is administered to the subject systemically or local to the area in which a pH change is desired. In this manner, pHLIP-liposome-mediated delivery of a cargo compound is regulated, e.g., reduced or stopped. For example, administering bicarbonated water, which increases tissue pH, results in a reduction of tumor targeting by pHLIP.
The transmembrane (TM) part of exemplary pHLIP peptides contain two Asp residues. […] The replacement of the key Asp residues by Lys, Ala or Asn leads to the loss of peptide of pH-dependent membrane insertion, as measured in liposomes, red blood cells and confirmed by in vivo fluorescence imaging. […]

[2] = test system: liposomes and cellular membranes; format: cell-based
Description: Toxicity is one of the most critical issues in the selection of any delivery agent. For example, the use of pore-forming membrane peptides as delivery agents is complicated by the toxicity associated with the formation of pores in cellular membranes in vivo.

[3] = in vivo
Description: If the peptide sequence were made more hydrophobic, tighter binding to red blood cells and epithelial cells and more aggregation in solution, and slower clearance and reduced bioavailability would occur. Making the peptide less hydrophobic accelerates clearance and prevents the peptide from finding its targets. Therefore, fine tuning of the solubility is an important property to optimize pHLIP performance in vivo.

[4] = pH-dependent membrane insertion of pHLIP peptides; format: physicochemical
Description: Peptide folding and membrane insertion are driven by a drop of pH from neutral or high (>7.4) to slightly acidic (7.0-6.5 and less) pHs. […] In contrast, all pore forming peptides first form aggregates on the membrane surface and then “fall” into membrane and form pores.
The transmembrane (TM) part of exemplary pHLIP peptides contain two Asp residues. At neutral pH these charged residues enhance peptide solubility and serve as anchors keeping the peptide at the surface of membrane, thereby preventing pHLIP partitioning into the hydrophobic membrane bilayer. A reduction of pH induces protonation of Asp residues, and as a result, the overall hydrophobicity of the peptide increases, enhancing the affinity of the peptide for the lipid bilayer core and triggering peptide folding and insertion. The replacement of the key Asp residues by Lys, Ala or Asn leads to the loss of peptide of pH-dependent membrane insertion, as measured in liposomes, red blood cells and confirmed by in vivo fluorescence imaging. […] The Ala substitutions yield a peptide that aggregates in solution (but de-aggregates when it becomes diluted in bodily fluids or tissue upon administration to a subject), while the Lys and Asn substitutions give peptides that are too polar to insert either at neutral or low pH. […]

[5] = Oligomeric state and aggregation of pHLIP in solution and on membranes; format: physicochemical
Procedure: Poor solubility due to aggregation is a typical property of membrane peptides, which has complicated studies and applications. Isolated or purified pHLIP, as any membrane peptide, also has a tendency to aggregate, especially at high concentrations and/or low pH. However, in aqueous solution at neutral pH pHLIP exists as a monomer at concentrations less than 30 μg/mL (˜7.0 μM), as studied by fluorescence and CD spectroscopy measurements, size exclusion chromatography coupled with “on-line” laser light scattering, ultraviolet and refractive index detection (SEC-LS/UV/RI) and analytical ultracentrifugation experiments. When the solubility of the peptide is compromised as a result of mutations, the affinity of the peptide for a membrane and its overall conformational properties change. Thus, studies were undertaken to design pHLIP peptides that are optimized for clinical diagnostic and therapeutic use.
The oligomeric state of the peptide on the surface of a membrane (state II) and inserted into the lipid bilayer (state III) were evaluated by FRET performed with two different donor-acceptor probes attached to the N-terminus of the peptide.

| Substance | targeting of acidic tissue and tumors [1] | cellular toxicity [2] | membrane leakage [2] | circulation in the blood [3] | apparent pK of insertion [4] | oligomeric state in states I, II and III [5] | concentration at which pHLIP exists as a monomer ([5]; aqueous solution at neutral pH) |
| --- | --- | --- | --- | --- | --- | --- | --- |
| K-pHLIP (ACEQNPIYWARYAKWLFTTPLLLLKLALLVDADEGTG; pHLIP variant) | does not demonstrate tumor targeting | – | – | – | – | – | – |
| pHLIP: water-soluble polypeptide based on the bacteriorhodopsin C helix, e.g. SEQ ID NO: 4 (ACEQNPIYWARYADWLFTTPLLLLDLALLVDADET; pHLIP variant) | can target acidic tissues | no cellular toxicity | does not lead to membrane leakage | several hours | 6.0 | monomer | less than 30 μg/mL and ~7.0 μM |
